assay: soluble on expression in E. coli; label from the status in PepcDB or PDB records

Sequence	soluble on expression in E. coli
MTGRLQNKVIVITGASSGIGEQVAMQVAEQGATPVLMARTEEKLKALADKIKETYNTPCYYYVLDVSEETEVQSVFSKVLQEVGRIDILVNNAGFGIFKTFEDASMDEVKDMFQVNVFGLVACTKAVLPYMVKRNEGHIINIASLAGKIATPKSSAYAATKHAVLGFTNSLRMELSSTNVFVTAINPGPIDTNFFEIADQSGTYVKNMGRYMLKPTYVAEQIVKSMQTKKREVNLPKWMGIGPKLYALFPGLFERVAGKSLSKK	not soluble
MTGSQVIDAEEDRHKLVVEYKDALQPADFYHNFKQRGIRSVQLIPYLEFDDRGDLTAASVTAELWGKFLIALFECWVRADISRISIELFDATLQKWCGSENPQPRCDCQACDWHRLCPHARQETPDSVLCAGYQAFYSYSAPHMRVMRDLIKQHRSPMELMTMLR	not soluble
MTGTSNIPTHGKEHKDAPALLPLPAPNPHHTHAAHPGNPSHDRPPSRGKLFIKTHGCQMNEYDSAKMADVLTTTEALELTDNPEEADIILINTCSIREKAQEKVFSQLGRWRALKTSGRDVIIGVGGCVASQEGEAIVKRAPYVDLVFGPQTLHRLPDMIRARREQNRPQVDIRFPEIEKFDHLPTPRAEGPSAFVSIMEGCSKYCSFCVVPYTRGEEVSRPFEDVLTEIAHLATQGVREINLLGQNVNAYRGAMDPGPSNNTNPAPPPYADLGLLIRAIAQFESIGRIRFTTSHPLEFSDSLVEAYRDVPQLANHLHLPVQSGSDRILSAMKRGYTALEFKSKIRKLRAVRPDISISSDFIIGFPGESDTDFQKTMQLIEDIGFDQSFSFIYSRRPGTPASNLEDHTPDEIKRTRLEHLQKHINTYAADISKRMIGTVQTVLVEGPSKKNPNELTGKTENMRPVNFPGHPRLIGQFIDVHITEALSNSLRGRVHTNLEHHHHHH	soluble
MTGVGTPSPSLEWRRRVMSWTDERVSTLKKLWLDGLSASQIAKQLGGVTRNAVIGKVHRLGLSGRAAPSQPARPAFKAPRPARPAAQAMPSAPRRVTPVEAPTSVPVAAAPAPLPAFRHEEPGSATVLTLGAHMCKWPIGDPSSEGFTFCGRRSSEGPYCVEHARVAYQPQQTKKKSGGAELARSLRRYILEHHHHHH	not soluble
MTGWGDHDSLYINPYENRNKLRTYSEYFPIVEVDSSFYAMQPARNYTKWAMETPKDFSFIVKAYQGMTGHMKGEIPFSTFDEMFDVYKQSILPLIEAGKLKTILFQYPPWFDCKKKNVDFLRYTKEKMEGLPCAIEFRNQTWFYPEMRDRTLQFLEQEKWIHTICDEPQAGIGSVPLVLEVTNSDMALIRFHGRNVHGWLDKGENWRAVRCLYRYNNKELEEWVERLEQLKKKTKDIYVLFNNNSGGDAADNAKQLMKMMNITYGEPKPEQLNFFE	not soluble
MTHDNIDILVVDDDISHCTILQALLRGWGYNVALANSGRQALEQVREQVFDLVLCDVRMAEMDGIATLKEIKALNPAIPVLIMTAYSSVETAVEALKTGALDYLIKPLDFDNLQATLEKALAHTHSIDAETPAVTASQFGMVGKSPAMQHLLSEIALVAPSEATVLIHGDSGTGKELVARAIHASSARSEKPLVTLNCAALNESLLESELFGHEKGAFTGADKRREGRFVEADGGTLFLDEIGDISPMMQVRLLRAIQEREVQRVGSNQIISVDVRLIAATHRDLAAEVNAGRFRQDLYYRLNVVAIEVPSLRQRREDIPLLAGHFLQRFAERNRKAVKGFTPQAMDLLIHYDWPGNIRELENAVERAVVLLTGEYISERELPLAIASTPIPLGQSQDIQPLVEVEKEVILAALEKTGGNKTEAARQLGITRKTLLAKLSR	soluble
MTHLGGKVRSSGFLIPGSAPVSGTPPQGQGGLASSRVYEDSGGSLLSFSPMIHPNLAPLIAPSAYARLNLLNHCIFLEAFKEENSGQGLGGVQREVLFLKRDIIKQVIARIVAADSTLDLVNHGEPGREAPRRAQ	not soluble
MTHQKRLSVPKSWKVGRKGNKWISTTRPGPHSQARSLPLGLIIRDVLKLVDNNREGKRILSEGKVLVDGISRKDLRFPVGLFDVITLPLVNEAYRMLQDEKGRLVLYKLNETNVNKLCRINNKTTVKGGKIQLNLNDGTNILGSNDYGTKDSLILSIPDKHVVKHLKFEVGNLAMVIGGQHSGETGKIMEIREVKSSRHNTVMISGETDFETIEDYVIVIGEDKPEIRLGGEISELEHHHHHH	soluble
MTIDLNAMLAKRAEVLGEGNKFDVKLGNKTFYFVAPELASSEWNDRHQAFLEDIRDGLMTSATAREEFLGLALEDQAEEFAEAADNIGVDPFIIAQMAFQEHAEYVGKTQSQKSLNRTQRRAKQR	not soluble
MTIIGNPEIGLYTGKLPKGCELCRLGGKLVLFITGECDDNCYYCPVSDDRFGKNKIFANETEVNNSMDVIYEAYRMKALGAGITGGDPILEIGRVIEIIEELKNEFGYDFHIHLYTTGRYVNDDIMRELVNAGLDEMRFHPVKELYLNAVKVALKYDIDIGLELPAIPNEKDKIVRLIKWAEENNVKFVNLNELELNSRNYLNLNSKGFHAKHGITGVEGSFETALDVLKKFEDNKKITVHYCSSIYKDLVETRTRFFRIIKYSSKPYEEYTNEATVVRAIVKTKGEIPILENFGESTGSDEYSISPSIVGDLLNDYTNLINEIYIVEEHPDSRRLRVGEKLIYSKSKNS	not soluble
MTIKTTMGILAGKASHFVLSKLGRGSTLPGKIALKFDKDILDTLAKDYEIVVVTGTNGKTLTTALTVGILKEAYGEIVTNPSGANMITGITSTFLTAKRAKSGKKIAVLEIDEASLPKITEYITPSLFVFTNIFRDQMDRYGEIYTTYQMILDGAAKAPAATILANGDSPLFNSKELVNPVRFYGFDTEKHAPELTHYNTEGIVCPKCESILQYHLNTYANLGDYVCLNCDFHRPELDYKLTQLTKITNTTSEFIIDGQDYKINVGGLYNIYNALAAVSVAEFFGVVPEQIKAGFDKSRAIFGRQETFKIGDKSCTLVLIKNPVGASQALDMIKLADYPFSLSVLLNANYADGIDTSWIWDANFESILDMDIPEINAGGVRHSEIARRLRVTGYPEDKITQAEKLEDIMTLIEKQDCDHAYILATYTAMLEFRDILAQRHAVGKGMN	not soluble
MTINEPLLSPLEQVVRNIEQVIVGKRNVIVLSLTALLAKGHVLLEDVPGVGKTMLVRALAKSFSAELKRIQFTPDLLPSDVIGVSVYNPKTQQFEYKPGPIVAHIVLADEINRTSPKTQSALLEAMEEGSVTVDGVTRALPQPFFVMATQNPIEYEGTYPLPEAQLDRFLLKLHMRYPSPDEEIEMLNRLEKTAPLAEIGPVMSLDELLALQRKVADVHVSDTVKRYIVDLIQQSRQHEAVYLGVSPRGSVALMKAAQAYAFIHGRDFVIPDDVQQLAPYVLAHRLLVRPEAKWDKFDAETIIGQLIARTPVPVPGRR	not soluble
MTIPLPGLEVRGSKTGKPIMALLDLLGRTWSLGIIWNLHSGPATFRELQQRCEKISPTLLNTRLKELKTLQLVECQEAGYQLTHQGLDLFDIISPLGSWSSQWAQGLKEDSK	not soluble
MTKDQRRSLTKKALLDALVICLKDQDFNEITTIRLVQTAGISRSSFYTHYKDKFEMIDSYQKELFHKLEYIFDKYEGKKEGAFLEIFEILTREKLLSALLSTNGAKEIQDFLINKLQRMIAKDFIDPTAEKRALKGFEKDYASIYLAHAIFGACQAWIKNGKKESPQEMTDFLLRFIPQ	not soluble
MTKEEFIKQKEQRKTFLVIAEEEGDSITPISLYRRMKGKKKFLLESSQLHQDKGRYSYLGCNPYGEVKSVGTEVERTIYGRAEKLQSNVLQVLEEIIAPSQVDSPFPFCGGAVGYIGYDVIRQYENIGADLHDPLNIPEVHLLLYREFIVYDHLRQKLSFVYVCREDDSADYEEVYERLRVYKEEVLQGEEAEVTEIRSTLSFTSSITEREFCVMVETAKEHIGAGDIFQVVLSQRLQSECIGDPFALYRKLRIANPSPYMFYIDFQDYVVLGSSPESLLSVREDKVMTNPIAGTRPRGKTKEEDTEIEKELLENEKERAEHMMLVDLGRNDIGRVSEIGSVTIDKYMKVEKYSHVMHIVSEVYGTLRKQMSGFDALAYCLPAGTVSGAPKIRAMEIINELENEKRNVYAGAVGYVSFSGNLDMALAIRTMVVKDEKAYVQAGAGIVYDSDPVAEYEETLNKARALLEVMK	not soluble
MTKFDLNDSSVVVIVGSGAGGGTLGNELAQKGVKVVILEAGPRIENQDFINDEWESFSQLAWTDARTTSGTWRVAKDFSGLPAWIVKAVGGSTVHWAGASLRFDEHEFRVKSAYGNIPGANLLDWPVTLAEMEPWYAKAENKMGVTRTNGIPGLPGNNNFKVLEAGAKKLGYKTVHTGNMAINSQPRDGRGSCQQIGFCFQGCKSGAKWSTLYTEIPKGEATGNLEVRPSSMAVKIEHDAGGKVTGVVYADEAGAMQRQKARIVAVAGNSIESPRLLLNSASTMFPDGLANSSGQVGRNYMRHMTGSVYAVFEKSVHMYRGTTMAGIIRDEAANNPKRGFVGGYEMETLSIGLPFMAAFLNPGAWGRPFTSALDGYPRMAGMWLVGEDMPQETNRITLDPVVKDKFGQPVASVHFDDHPNDIAMRAHAYKQGAAVYDAVGATVTYPTPPYPSTHNLGTNRMSEKPRDGVVNKFGQSHDVKNLFVSDGSQFTSGAACNPTLTIVALAIRQADYIAGAMQKKEILEHHHHHH	not soluble
MTKFNWHESAEKKWDSSAEFWNQNSQEMWDSGSRSTIIPFFEQYVKKEAQVLDVGCGDGYGTYKLSSAGYKAVGVDLSEVMIQKGKERGEGPNLSFIKGDLSALPFENEQFESIMAINSLEWTEEPLRALNEIKRVLKKDGYACIAILGPTAKPRENSYLRLYGKDVVCNTMMPWEFEQLAKEQGFKVIDGIGVYKRGVNEKMLGQLPTELQQSLTFLWVFMLKNV	not soluble
MTKIGINGFGRIGRNVFRAALNNSEVEVVAINDLTDAKTLAHLLKYDTVHGTLNAEVSANENSIVVNGKEIKVIAERDPAQLPWSDYGVEVVVESTGRFTKKSDAEKHLGGSVKKVIISAPASDEDITVVMGVNHEQYDAANHNVVSNASCTTNCLAPFAKVLNEKFGVKRGMMTTIHSYTNDQQILDLPHKDLRRARAAAENMIPTSTGAAKAVALVLPELKGKLNGGAVRVPTANVSLVDLVVELDKEVTVEEVNAAFKAAAEGELKGILGYSEEPLVSIDYNGCTASSTIDALSTMVMEGNMVKVLSWYDNETGYSNRVVDLAAYMTSKGL	soluble
MTKLAVVGATGLVGTKMLETLNRKNIPFDELVLFSSARSAGQEVEFQEKTYTVQELTDARASEHFDYVLMSAGGGTSEHFAPLFEKAGAIVIDNSSQWRMAEDIDLIVPEVNEPTFTRGIIANPNCSTIQSVVPLKVLQDAYGLKRVAYTTYQAVSGSGMKGKKDLAEGVNGKAPEAYPHPIYNNVLPHIDVFLENGYTKEEQKMIDETRKILNAPDLKVTATCARVPVQDSHSVEIDVTLDKETTAEDIKALFDQDDRVVLVDNPENNEYPMAINSTNKDEVFVGRIRRDDSLENTFHVWCTSDNLLKGAALNAVQVLEQVMRLKGAN	soluble
MTKLTIFYDGTCPLCAKEMKALRQHDHKQEINTVDIYSDAFSAYPQINPDRANTILHALDNQGNLLLGLDVTYRAWQLVGRGWLYAPLRWPLIRPVADWLYLRFAQNRYRISYWLTGTSRCNSGRCSRLEHHHHHH	soluble
MTKNDNTIFKDIYQLWFTQYKQTVKESTWVTTQRLFRLHILPIFSDYRIAKISIKDCQKAINQWFNAGLAKYHTLMNYVAKVLDYAINIDLISENPAKRVIVPVNKNDRSLEHHHHHH	soluble

From the DeepSol protein solubility set
